Measurements as given in patent US20250320281A1.

Assays:
Assay in all cases: cell-based or functional assay
[1] = molecular target: HIV-1 Env of isolate CMU02 (subtype AE) (HIV-1)
[2] = molecular target: HIV-1 Env of isolate MGRM-G-027 (HIV-1)
[3] = molecular target: HIV-1 Env of isolate 94UG103 (subtype A) (HIV-1)
[4] = molecular target: HIV-1 Env of isolate MGRM-G-014 (HIV-1)
[5] = molecular target: HIV-1 Env of isolate MGRM-G-015 (HIV-1)
[6] = molecular target: aMLV envelope (negative control pseudovirus)
[7] = molecular target: HIV-1 Env of isolate 92WR021 (subtype A) (HIV-1)
[8] = molecular target: HIV-1 envelope glycoprotein (Env) of isolate APV_6 (HIV-1)
[9] = molecular target: HIV-1 Env of isolate MGRM-G-001 (HIV-1)
[10] = molecular target: HIV-1 envelope glycoprotein (Env) of isolate MGRM-Chronic-B-004 (HIV-1)
[11] = molecular target: HIV-1 Env of isolate 92RW008 (subtype A) (HIV-1)
[12] = molecular target: HIV-1 Env of isolate MGRM-G-009 (HIV-1)
[13] = molecular target: HIV-1 Env of isolate MGRM-G-011 (HIV-1)
[14] = molecular target: HIV-1 Env of isolate 92WR024 (subtype A) (HIV-1)
[15] = molecular target: HIV-1 envelope glycoprotein (Env) of isolate MGRM-Chronic-B-008 (HIV-1)
[16] = molecular target: HIV-1 Env of isolate MGRM-G-025 (HIV-1)
[17] = molecular target: HIV-1 Env of isolate MGRM-G-013 (HIV-1)
[18] = molecular target: HIV-1 Env of isolate MGRM-G-028 (HIV-1)
[19] = molecular target: HIV-1 envelope glycoprotein (Env) of isolate CAAN.A2 (HIV-1)
[20] = molecular target: HIV-1 envelope glycoprotein (Env) of isolate APV_13 (HIV-1)
[21] = molecular target: HIV-1 envelope glycoprotein (Env) of isolate MGRM-Chronic-B-002 (HIV-1)
[22] = molecular target: HIV-1 envelope glycoprotein (Env) of isolate MGRM-Chronic-B-003 (HIV-1)
[23] = molecular target: HIV-1 Env of isolate 93WR029 (subtype A) (HIV-1)
[24] = molecular target: HIV-1 Env of isolate MGRM-AE-002 (subtype AE) (HIV-1)
[25] = molecular target: HIV-1 Env of isolate 92WR026 (subtype A) (HIV-1)
[26] = molecular target: HIV-1 Env of isolate MGRM-AE-005 (subtype AE) (HIV-1)
[27] = molecular target: HIV-1 envelope glycoprotein (Env) of isolate 92BR020 (HIV-1)
[28] = molecular target: HIV-1 envelope glycoprotein (Env) of isolate MGRM-Chronic-B-001 (HIV-1)
[29] = molecular target: HIV-1 Env of isolate MGRM-G-024 (HIV-1)
[30] = molecular target: HIV-1 envelope glycoprotein (Env) of isolate 93TH305 (HIV-1)
[31] = molecular target: HIV-1 Env of isolate MGRM-AE-001 (subtype AE) (HIV-1)
[32] = molecular target: HIV-1 Env of isolate 92TH021 (subtype AE) (HIV-1)
[33] = molecular target: HIV-1 envelope glycoprotein (Env) of isolate 6535.3 (HIV-1)
[34] = molecular target: HIV-1 Env of isolate 93UG077 (subtype A) (HIV-1)
[35] = molecular target: HIV-1 Env of isolate MGRM-G-004 (HIV-1)
[36] = molecular target: HIV-1 Env of isolate MGRM-AE-003 (subtype AE) (HIV-1)
[37] = molecular target: HIV-1 Env of isolate MGRM-G-016 (HIV-1)
[38] = molecular target: HIV-1 Env of isolate VLGCA1 (subtype A) (HIV-1)
[39] = molecular target: HIV-1 Env of isolate MGRM-G-017 (HIV-1)
[40] = molecular target: HIV-1 Env of isolate MGRM-AE-004 (subtype AE) (HIV-1)
[41] = molecular target: HIV-1 Env of isolate 92WR009 (subtype A) (HIV-1)
[42] = molecular target: HIV-1 Env of isolate MGRM-G-019 (HIV-1)
[43] = molecular target: HIV-1 Env of isolate MGRM-AE-006 (subtype AE) (HIV-1)
[44] = molecular target: HIV-1 envelope glycoprotein (Env) of isolate JR-FL (HIV-1)
[45] = molecular target: HIV-1 Env of isolate 92WR020 (subtype A) (HIV-1)
[46] = molecular target: HIV-1 envelope glycoprotein (Env) of isolate APV_17 (HIV-1)
[47] = molecular target: HIV-1 Env of isolate 92UG031 (subtype A) (HIV-1)
[48] = molecular target: HIV-1 Env of isolate MGRM-G-006 (HIV-1)
[49] = molecular target: HIV-1 Env of isolate 92UG037 (subtype A) (HIV-1)
[50] = molecular target: HIV-1 Env of isolate 94 KE 105 (subtype AC) (HIV-1)

4995_P16 (PGT-145) (antibody), sequence (VH): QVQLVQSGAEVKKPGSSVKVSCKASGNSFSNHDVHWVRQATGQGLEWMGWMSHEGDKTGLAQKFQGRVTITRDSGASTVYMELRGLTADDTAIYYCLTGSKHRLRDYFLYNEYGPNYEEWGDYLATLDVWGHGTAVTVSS
4995_P16 (PGT-145) (antibody), sequence (VL): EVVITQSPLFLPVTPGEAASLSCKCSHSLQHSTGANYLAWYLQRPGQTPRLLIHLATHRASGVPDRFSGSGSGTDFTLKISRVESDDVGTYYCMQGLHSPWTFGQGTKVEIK

With 4995_P16 (PGT-145) (antibody) as the substance, how does the IC50 (µg/mL), pseudovirus neutralization [1] read?
The IC50 (µg/mL), pseudovirus neutralization was 1.43 µg/mL.

And the IC50 (µg/mL), pseudovirus neutralization [2]?
The IC50 (µg/mL), pseudovirus neutralization was 0.433 µg/mL.

And the IC50 (µg/mL), pseudovirus neutralization [3]?
The IC50 (µg/mL), pseudovirus neutralization was 0.331 µg/mL.

What about the IC50 (µg/mL), pseudovirus neutralization [4] of the same substance?
Its IC50 (µg/mL), pseudovirus neutralization is 0.144 µg/mL.

What about the IC50 (µg/mL), pseudovirus neutralization [5] of the same substance?
The IC50 (µg/mL), pseudovirus neutralization was 10.5 µg/mL.

What about the IC50 (µg/mL), pseudovirus neutralization [6] of the same substance?
The IC50 (µg/mL), pseudovirus neutralization was > 50 µg/mL.

What about the IC50 (µg/mL), pseudovirus neutralization [7] of the same substance?
Its IC50 (µg/mL), pseudovirus neutralization is 1.62 µg/mL.

What about the IC50 (µg/mL), pseudovirus neutralization [8] of the same substance?
Its IC50 (µg/mL), pseudovirus neutralization is 0.104 µg/mL.

And the IC50 (µg/mL), pseudovirus neutralization [9]?
Its IC50 (µg/mL), pseudovirus neutralization is 0.028 µg/mL.

And the IC50 (µg/mL), pseudovirus neutralization [10]?
The IC50 (µg/mL), pseudovirus neutralization was 0.023 µg/mL.

And the IC50 (µg/mL), pseudovirus neutralization [11]?
Its IC50 (µg/mL), pseudovirus neutralization is 0.4 µg/mL.

And the IC50 (µg/mL), pseudovirus neutralization [12]?
Its IC50 (µg/mL), pseudovirus neutralization is 0.982 µg/mL.

And the IC50 (µg/mL), pseudovirus neutralization [13]?
The IC50 (µg/mL), pseudovirus neutralization was 0.028 µg/mL.

And the IC50 (µg/mL), pseudovirus neutralization [14]?
The IC50 (µg/mL), pseudovirus neutralization was 0.069 µg/mL.

And the IC50 (µg/mL), pseudovirus neutralization [15]?
Its IC50 (µg/mL), pseudovirus neutralization is 1.9 µg/mL.

What about the IC50 (µg/mL), pseudovirus neutralization [16] of the same substance?
Its IC50 (µg/mL), pseudovirus neutralization is > 50 µg/mL.

What about the IC50 (µg/mL), pseudovirus neutralization [17] of the same substance?
Its IC50 (µg/mL), pseudovirus neutralization is > 50 µg/mL.

What about the IC50 (µg/mL), pseudovirus neutralization [18] of the same substance?
The IC50 (µg/mL), pseudovirus neutralization was 0.046 µg/mL.

What about the IC50 (µg/mL), pseudovirus neutralization [19] of the same substance?
Its IC50 (µg/mL), pseudovirus neutralization is 7.08 µg/mL.

And the IC50 (µg/mL), pseudovirus neutralization [20]?
The IC50 (µg/mL), pseudovirus neutralization was 0.337 µg/mL.

What about the IC50 (µg/mL), pseudovirus neutralization [21] of the same substance?
The IC50 (µg/mL), pseudovirus neutralization was 3.67 µg/mL.

What about the IC50 (µg/mL), pseudovirus neutralization [22] of the same substance?
The IC50 (µg/mL), pseudovirus neutralization was 0.045 µg/mL.

What about the IC50 (µg/mL), pseudovirus neutralization [23] of the same substance?
Its IC50 (µg/mL), pseudovirus neutralization is > 50 µg/mL.

What about the IC50 (µg/mL), pseudovirus neutralization [24] of the same substance?
Its IC50 (µg/mL), pseudovirus neutralization is 1.87 µg/mL.

And the IC50 (µg/mL), pseudovirus neutralization [25]?
The IC50 (µg/mL), pseudovirus neutralization was 1.45 µg/mL.

What about the IC50 (µg/mL), pseudovirus neutralization [26] of the same substance?
The IC50 (µg/mL), pseudovirus neutralization was 0.967 µg/mL.

What about the IC50 (µg/mL), pseudovirus neutralization [27] of the same substance?
Its IC50 (µg/mL), pseudovirus neutralization is 1.05 µg/mL.

What about the IC50 (µg/mL), pseudovirus neutralization [28] of the same substance?
The IC50 (µg/mL), pseudovirus neutralization was 3.22 µg/mL.

And the IC50 (µg/mL), pseudovirus neutralization [29]?
The IC50 (µg/mL), pseudovirus neutralization was 0.06 µg/mL.

And the IC50 (µg/mL), pseudovirus neutralization [30]?
Its IC50 (µg/mL), pseudovirus neutralization is 0.032 µg/mL.

And the IC50 (µg/mL), pseudovirus neutralization [31]?
The IC50 (µg/mL), pseudovirus neutralization was 20.9 µg/mL.

And the IC50 (µg/mL), pseudovirus neutralization [32]?
The IC50 (µg/mL), pseudovirus neutralization was 0.013 µg/mL.

And the IC50 (µg/mL), pseudovirus neutralization [33]?
Its IC50 (µg/mL), pseudovirus neutralization is > 50 µg/mL.

What about the IC50 (µg/mL), pseudovirus neutralization [34] of the same substance?
The IC50 (µg/mL), pseudovirus neutralization was > 50 µg/mL.

And the IC50 (µg/mL), pseudovirus neutralization [35]?
Its IC50 (µg/mL), pseudovirus neutralization is > 50 µg/mL.

And the IC50 (µg/mL), pseudovirus neutralization [36]?
Its IC50 (µg/mL), pseudovirus neutralization is 0.552 µg/mL.

What about the IC50 (µg/mL), pseudovirus neutralization [37] of the same substance?
Its IC50 (µg/mL), pseudovirus neutralization is 0.081 µg/mL.

What about the IC50 (µg/mL), pseudovirus neutralization [38] of the same substance?
The IC50 (µg/mL), pseudovirus neutralization was 8.01 µg/mL.

And the IC50 (µg/mL), pseudovirus neutralization [39]?
The IC50 (µg/mL), pseudovirus neutralization was 0.205 µg/mL.

And the IC50 (µg/mL), pseudovirus neutralization [40]?
Its IC50 (µg/mL), pseudovirus neutralization is 0.006 µg/mL.

What about the IC50 (µg/mL), pseudovirus neutralization [41] of the same substance?
The IC50 (µg/mL), pseudovirus neutralization was 0.026 µg/mL.

What about the IC50 (µg/mL), pseudovirus neutralization [42] of the same substance?
Its IC50 (µg/mL), pseudovirus neutralization is 0.041 µg/mL.

And the IC50 (µg/mL), pseudovirus neutralization [43]?
Its IC50 (µg/mL), pseudovirus neutralization is > 50 µg/mL.

And the IC50 (µg/mL), pseudovirus neutralization [44]?
Its IC50 (µg/mL), pseudovirus neutralization is 30.4 µg/mL.

And the IC50 (µg/mL), pseudovirus neutralization [45]?
The IC50 (µg/mL), pseudovirus neutralization was 0.997 µg/mL.

And the IC50 (µg/mL), pseudovirus neutralization [46]?
The IC50 (µg/mL), pseudovirus neutralization was 0.488 µg/mL.

What about the IC50 (µg/mL), pseudovirus neutralization [47] of the same substance?
Its IC50 (µg/mL), pseudovirus neutralization is 3.22 µg/mL.

And the IC50 (µg/mL), pseudovirus neutralization [48]?
Its IC50 (µg/mL), pseudovirus neutralization is 0.286 µg/mL.

What about the IC50 (µg/mL), pseudovirus neutralization [49] of the same substance?
The IC50 (µg/mL), pseudovirus neutralization was 3.15 µg/mL.

And the IC50 (µg/mL), pseudovirus neutralization [50]?
The IC50 (µg/mL), pseudovirus neutralization was 1.32 µg/mL.
